What is called koff is the first-order rate constant of dissociation. In general, kon refers to a measure of how fast the partners come together. In general, Kd refers to the free concentration of one partner at which half of the binding sites on the other are occupied at equilibrium, for simple one-to-one binding.

Experiment [1] deals with T1, Recombinant Rat B7-H3 Fc Chimera Protein (R&D Systems Cat #10610-B3-050) (rat, UniProt Q7TPB4 29-244).
T1 construct: Bought Fc chimera; not shown: Fc part of the chimera
T1 sequence (looked up): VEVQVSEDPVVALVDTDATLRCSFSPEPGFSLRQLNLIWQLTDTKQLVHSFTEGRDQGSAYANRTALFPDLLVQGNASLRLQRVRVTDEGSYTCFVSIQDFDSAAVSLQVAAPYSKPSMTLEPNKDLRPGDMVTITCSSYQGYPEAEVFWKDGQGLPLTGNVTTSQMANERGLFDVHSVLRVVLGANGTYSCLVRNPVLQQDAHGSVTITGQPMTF
As to the kind of experiment: BLI (Octet), bispecific antibody captured on biosensor, soluble antigen. On the procedure: (§1) Soluble antigens (e.g., B7H3 or GD2) were then added to the system and binding was measured.
(In general: In BLI a coated tip is dipped into the sample, and binding shifts an interference pattern.)

Experiment [2] has as its target T2, Cynomolgus B7H3, His-tagged protein (AcroBiosystems Cat #B73-C52Ha) (cynomolgus).
T2 construct: Bought soluble protein; also called Cyno B7H3
The description is as above. On the procedure: as §1

The target in experiment [3] is T1, Recombinant Rat B7-H3 Fc Chimera …. As to the kind of experiment: BLI (Octet), bispecific antibody captured on biosensor, soluble antigen; via kinetics. On the procedure: as §1
Experiment [4] has as its target T2, Cynomolgus B7H3, His-tagged protein …. The description is as above. On the procedure: as §1

B1: Exemplary Bispecific Antibody 1 (B7H3 x GD2) (bispecific antibody)
chain 1: not shown
chain 2: EVQLVESGGGLVQPGGSLRLSCAASGFTFSTYYIHWVRQAPGKGLEWVAWIHPSGKYTYYADSVKGRFTISADTSKNTAYLQMNSLRAEDTAVYYCARHYQVGAMDYWGQGTLVTVSSAQPREPQVYTLPPCRDWLTKNQVSLTCLVKGFYPSDIAVEWESNGQPENNYKTTPPVLDSDGSFFLYSKLTVDKSRWQQGNVFSCSVMHEALHNHYTQKSLSLSPGK
chain 3: not shown
chain 4: EVQLVESGGGLVQPGGSLRLSCAASGSSFTGYNMNWVRQAPGKGLEWVAAIDPYYGGTYYADSVKGRFTISADTSKNTAYLQMNSLRAEDTAVYYCASGMEYWGQGTLVTVSSASTKGPSVFPLAPSSKSTSGGTAALGCLVKDYFPEPVTVSWNSGALTSGVHTFPAVLQSSGLYSLSSVVTVPSSSLGTQTYICNVNHKPSNTKVDKKVEPKSC
notes: B7H3 arm on chains 1 and 2, GD2 arm on chains 3 and 4; also called Ex. bsAb; 1×1 bispecific antibody
As for B1, the off-rate (koff) was 0.00137 s⁻¹ in experiment [1] and 0.000239 s⁻¹ in experiment [2]. Further, the kon in experiment [1] was 199000 M⁻¹ s⁻¹; in experiment [2] it was 206000 M⁻¹ s⁻¹. Also, the Kd turned out to be 6.88 nM in experiment [3] and 1.16 nM in experiment [4].

Values taken from patent US20250353910A1 (INVENRA, published 2025).
